Data reported in the nanobody polyreactivity screen of Harvey et al. (2022).

Assay: yeast display, Sf9 membrane polyspecificity reagent, FACS + sequencing; frameworks hold sequencing errors
Summary of the method: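 Nanobodies came from a synthetic yeast display library in Saccharomyces cerevisiae BJ5465, induced with galactose for 36–48 hours and stained for 1 hour at 4 °C with 10% biotinylated, detergent-solubilized Sf9 membrane reagent. Cells were enriched on streptavidin microbeads and then FACS-sorted, with low and high (top ~1%) gates set on anti-HA fluorescence for expression and streptavidin fluorescence for reagent binding. Each polyreactivity label reflects the gate a clone came from. Genes were amplified by colony PCR, sequenced by MiSeq 2 × 250 and filtered by CDR length.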

Row | Sequence | polyreactivity (PSR sort gate)
1 | QVQLVESAGGLVQAGGSLRLSCAASGSIFPAYAMGWYRQAPGKERELVASITTGDRTYYADSVKGRFTISRDNAKNTVYLQMNSLKPEDTAVYYCAALYYVHYYSAHYPTLSRHEYWGPGTQVTVSS | high polyreactivity
2 | QVQLVESAGGLVQAGGSLRLSCAASGSIFSRNAMGWYRPAPGKERELVAAITWSGGSTYYADSVKGRFTISRDNAKNTVYLQMNSLKPEDTAVYYCNAKRSSRIKQLEYDYWGQGTQVTVSS | high polyreactivity
3 | QVQLVESAGGLVQAGGSLRLSCAASGSIFTTYTIVWYRQAPGKERELVAAITSSSGSTYYADSVKGRFTISRDNAKNTVYLQMNSLKPEDTAVYYCNATYSAAVDYWGQGTQVTVSS | low polyreactivity
4 | QVQLVESAGGLVQAGGSLRLSCAASGSTFDLYAMGWYRQAPGKEREFVAAISRSGGSTYYADSVKGRFTISRDNAKNTVYLHMNSLKPEDTAVYYSNARWPPGVSRGGMGYWGQGTQVTVST | high polyreactivity
5 | QVQLVESAGGLVQAGGSLRLSCAASGSTFGENAMGWYRQAPGKERELVAAISDSGGDTYYADSVKGRFTISRDNAKYTVYLQMNSLKPEDTAVYYCAADRYGYWYAYYSWGQGTLVTVSS | low polyreactivity
6 | QVQLVESAGGLVQAGGSLRLSCAASGSTFIRYAMGWYRQAPGKERELVAAITRGGSTYYADSVKGRFTISRDNAKYTVYLQMNSLKPEDTAVYYCAAGYYGNGVFEYDYWGQGTQVTVSS | low polyreactivity
7 | QVQLVESAGGLVQAGGSLRLSCAASGSTFPTYAMGWYRQSPGKERELVAAIDWSDGSITYYADSVKGRFTISRDNAKNTVYLQMNSMKPEDTAVYYCAKDNSQYGWGYDYWGQGTQVTVSS | low polyreactivity
8 | QVQLVESAGGLVQAGGSLRLSCAASGSTFVANAMGWYRQAPGKERELVARISRSTGSTYYADSVKGRFTISRDNAKNTVYLQMNSLKPEDTAVYYCAAPSVYYPQFDYWGQGTQVTVSS | high polyreactivity
9 | QVQLVESAGGLVQAGGSLRLSCAASGSTLSWNTMGWYRQAPGKERELVARINWGGSSTYYADSVKGRFTISRDNAKNTVYLQMNSLKPEDTAVFYCNARYLSSAYDYWGQGTQVTVSS | high polyreactivity
10 | QVQLVESAGGLVQAGGSLRLSCAASGSTLYKYAMGWYRQAPGKETEMVATLTRTDSTNYADSVKGRFTISRDNAKNTVYIQMNSLKPEDTAVYYCAARRVYYNGYYVNVGSFYYWGQGTQVTVSS | low polyreactivity
11 | QVQLVESAGGLVQAGGSLRLSCAASGYIFVPYAMGWYRQAPGKERELVASITWSGGSTYYADSVKGRFTISRDNAKNTVYLQMNSLKPEDTAVYYCAAANYTYASRWYDYWGQGTQVTVSS | low polyreactivity
12 | QVQLVESAGGLVQAGGSLRLSCAASGYTFPFYTMGWYRQAPGKERELVAAITDTGGGTYYADSVKGRFTISRDNAKNTVYLQMNSLNPEDTAVYYCAKPTSYRGYYSWGQGTQVTVSS | high polyreactivity
13 | QVQLVESAGGLVQAGGSLRLSCAATGSIFHPYAMGWYRQAPGKERELVASITSSGGSTYYADSVKVRFTISRENAKNTVYLEMNSLKPEDTAVYYCKAQFLVYFFWYSTTAYIMYYWGQGTQVTVSS | low polyreactivity
14 | QVQLVESAGGLVQAGGSLRLSCAAYGIIFKIYAMGWYRQAPGKERELVAAITRSGTRTYYADSVKGRFTISRDNEKNTVYFQMNSLKPEDTAGYYCNAYTSLAYDLDYWGQGTQVTVSS | high polyreactivity
15 | QVQLVESAGGLVQAGGSLRLSCAAYGRTLAKYAMGWYRQAPGKERELVAAITRDGSTNYADSVKGRFTISRDNAKNTVYLQMNSLKPEDTAVYYCATRSYWYRVYYWGQGTQVTVSS | high polyreactivity
16 | QVQLVESAGGLVQAGGSLRLSCAAYGSIFGFYAMGWYRQAPGKERELVAAIDSGDSTNYADSVKGRFTISRDNAKNTVYLQMNSLKPEDTAVYYCNAEAWWYFWFDYWGQGTQVTVSS | low polyreactivity
17 | QVQLVESAGGLVQAGGSLRLSCADSGRLFYLYARGWYRQAPGKERELVAAISSTGRTTYADSVKGRFTISRDNAKNTVYLQMNSLKPEDTAVYYGAADFRLSGSYGGFDYWGQGTQVTVSS | low polyreactivity
18 | QVQLVESAGGLVQAGGSLRLSCADSGRTFAYNVIGWYRQAPGKERELVAGISFGAGTTYYADSVKGRFTISRDNAKNTVYLQMNSLKPEDTAVYYCATRRRGTRYPRGYDYWGQGTQVTVSS | high polyreactivity
19 | QVQLVESAGGLVQAGGSLRLSCGASGRIYSLYAMGWYRQAPGKERELVAAISWGAGSTYYADSVKGRFTISRDNAKNTVYLQMNSLKREDTAVYYCATGRRYYYPYSSYLKYGYWGQGTQVTVSS | high polyreactivity
20 | QVQLVESAGGLVQAGGSLRLSFAASGSIFYSYAMGSYRKAAGKDRELVADITSSGGSTYYADSVKGRFTISRDNAKNTDYLQMNSLKREDTAVYYCAASSPAFYGLRYNYWGQGTQVTVSS | low polyreactivity
21 | QVQLVESAGGLVQAGGSLRLSGAASGSTFHNYAVGWSRQAPGKERELVGGISVRGGGTYYADSVKGRFTISRDNAKNTVYLQMNSLKPEDTAVYYCAQRSRYYYRYDYWGQGTQVTVSS | high polyreactivity
22 | QVQLVESAGGLVQAGGSLRVRCAASGGIFSGNDMGWYRQAPGKERELVATITSDGSTNYADSVKGRFTISRDNAKNTVYLQMNSLKPEDTAVYYCAADGLYWWMYYWGQGTQVTVSS | low polyreactivity
